# From patent US20160220669A1 (Hoffmann-La Roche, published 2016)
# Tests used:
# [1] = molecular target: human wildtype CSF-1R (full-length) (human, UniProt P07333 20-972); experiment: cell-based or functional assay
# [2] = molecular target: CSF-1R of cynomolgous monocytes (cynomolgous); experiment: cell-based or functional assay
Binder,"% inhibition 10 µg/ml antibody concentration (BeWo cells, CSF-1 induced growth) [1] [%]","% survival (cynomolgous monocytes with huCSF-1, 5 µg/ml antibody) [2] [%]"
"Mab 2F11 (antibody, V domains shown) VH: QVQLKESGPGLVAPSQSLSITCTVSGFSLTTYDISWIRQSPGKGLEWLGVIWTDGGTNYNSPFMSRLSIRKDNSKSQVFLKMNRLQTDDTAIYYCVRDQRLYFDVWGAGTTVTVSS VL: NIVMTQSPKSMSMSVGERVTLNCKASEDVNTYVSWYQQQPEQSPKLLIYGASNRYTGVPDRFTGGGSTTDFTLTISSVQAEDLADYFCGQSFSYPTFGTGTKLEIK",70,4
"Mab 2E10 (antibody, V domains shown) VH: QVQLKESGPGLVAPSKSLSITCTVSGSSLDSFDISWIRQSPGKGLEWLGVIWTGGGTNYNSGFMSRLRITKDNSKSQVLLKMNSLQSDDTAIYYCVRDPRLYFDVWGAGTTVTVSS VL: NIVMTQSPKSMSMSVGERVTLSCKASEDVVTYVSWYQQKPDQSPKLLIYGASNRYTGVPDRFTGSGSATDFTLTISSVQAEDLADYYCGQTFSYPTFGTGTKLEIK",102,17
"Mab 1G10 (antibody, V domains shown) VH: RVQLKESGPGLVAPSQSLSITCTVSGFSLTSYDISWIRQSPGKGLEWLGVIWSGGGTNYNSPFMSRLRISKDDSRSQVFLKVNRLQTDDTAIYYCVRDLRLYFDVWGAGTTVTVSS VL: KIVMTQSPKSMSVSVGERVSLSCKASEDVGTYVSWYQQKPEQSPKLLIYGSSNRYTGVPDRFTGSGSATDFTLTISSVQAEDLADYSCGQSFTYPTFGTGTKLEIK",99,2
"Mab 2H7 (antibody, V domains shown) VH: QVQLKESGPGLVAPSKSLSITCTVSGSSLDSFDISWIRQPPGKGLEWLGVIWTGGGTNYNSGFMSRLRISKDNSKSQVFLKMSSLQSDDTAIYYCVRDPRLYFDVWGAGTTVTVSS VL: NIVMTQSPKSMSMSVGERVTLSCKASEDVVTYVSWYQQKPEQSPKLLIYGASNRYTGVPDRFTGSGSATDFTLTISSIQAEDLADYYCGQTFSYPTFGTGTKLEIK",103,8
